The text below walks through data of patent US20190367612A1 (Daiichi Sankyo, published 2019).

B1: humanized anti-GPRC5D antibody h2B1_H2/L3 (antibody, human IgG1, kappa, V domains shown)
VH: QVQLVESGGGLVKPSQTLSLTCTFSGFSLNTYDMGVGWIRQPPGKGLEWIGNIWWDDDKYYNPSLKSRVTISKDTSNNQASLKLSSVTAADTAVYYCARIETVRVSRKGFAHWGQGTLVTVSS
VL: DTVMTQSPDSLAVSLGERATINCKASQSVGINVDWYQQKPGQPPKLLIYGASNRHTGVPDRFSGSGFGRDFTLTISSLQAEDVAVYYCLQHGSIPPTFGQGTKVEIKR
notes: Human IgG1 / kappa
B2: humanized anti-GPRC5D antibody h2B1_H2/L5 (antibody, human IgG1, kappa, V domains shown)
VH: QVQLVESGGGLVKPSQTLSLTCTFSGFSLNTYDMGVGWIRQPPGKGLEWIGNIWWDDDKYYNPSLKSRVTISKDTSNNQASLKLSSVTAADTAVYYCARIETVRVSRKGFAHWGQGTLVTVSS
VL: ATRMTQSPSSFSASTGDRVTITCKASQSVGINVDWYQQKPGKSPKLLIYGASNRHTGVPSRFSGSGFGRDFTLTISSLQSEDFATYYCLQHGSIPPTFGGGTKVEIKR
notes: Human IgG1 / kappa
B3: humanized anti-GPRC5D antibody h2B1_H4/L3 (antibody, human IgG1, kappa, V domains shown)
VH: QVTLKESGPALVKPTQTLTLTCTFSGFSLNTYDMGVGWIRQPPGKGLEWLANIWWDDDKYYSPSLKSRLTITKDTSNNQAVLTMTNMDPVDTATYYCARIETVRVSRKGFAHWGQGTLVTVSS
VL: DTVMTQSPDSLAVSLGERATINCKASQSVGINVDWYQQKPGQPPKLLIYGASNRHTGVPDRFSGSGFGRDFTLTISSLQAEDVAVYYCLQHGSIPPTFGQGTKVEIKR
notes: Human IgG1 / kappa
B4: humanized anti-GPRC5D antibody h2B1_H3/L5 (antibody, human IgG1, kappa, V domains shown)
VH: QVQLVESGGGLVKPSQTLSLTCTFSGFSLNTYDMGVGWIRQPPGKGLEWIANIWWDDDKYYNPSLKSRVTISKDTSNNQASLKLSSVTAADTAVYYCARIETVRVSRKGFAHWGQGTLVTVSS
VL: ATRMTQSPSSFSASTGDRVTITCKASQSVGINVDWYQQKPGKSPKLLIYGASNRHTGVPSRFSGSGFGRDFTLTISSLQSEDFATYYCLQHGSIPPTFGGGTKVEIKR
notes: Human IgG1 / kappa
B5: humanized anti-GPRC5D antibody h2B1_H2/L4 (antibody, human IgG1, kappa, V domains shown)
VH: QVQLVESGGGLVKPSQTLSLTCTFSGFSLNTYDMGVGWIRQPPGKGLEWIGNIWWDDDKYYNPSLKSRVTISKDTSNNQASLKLSSVTAADTAVYYCARIETVRVSRKGFAHWGQGTLVTVSS
VL: DTVMTQSPDSLAVSLGERATINCKASQSVGINVDWYQQKPGQSPKLLIYGASNRHTGVPDRFSGSGFGRDFTLTISSLQAEDVAVYYCLQHGSIPPTFGQGTKVEIKR
notes: Human IgG1 / kappa
B6: humanized anti-GPRC5D antibody h2B1_H2/L2 (antibody, human IgG1, kappa, V domains shown)
VH: QVQLVESGGGLVKPSQTLSLTCTFSGFSLNTYDMGVGWIRQPPGKGLEWIGNIWWDDDKYYNPSLKSRVTISKDTSNNQASLKLSSVTAADTAVYYCARIETVRVSRKGFAHWGQGTLVTVSS
VL: DTVMTQSPDSLAVSLGERATINCKASQSVGINVDWYQQKPGQPPKLLIYGASNRHTGVPDRFSGSGFGTDFTLTISSLQAEDVAVYYCLQHGSIPPTFGQGTKVEIKR
notes: Human IgG1 / kappa
B7: humanized anti-GPRC5D antibody h2B1_H3/L3 (antibody, human IgG1, kappa, V domains shown)
VH: QVQLVESGGGLVKPSQTLSLTCTFSGFSLNTYDMGVGWIRQPPGKGLEWIANIWWDDDKYYNPSLKSRVTISKDTSNNQASLKLSSVTAADTAVYYCARIETVRVSRKGFAHWGQGTLVTVSS
VL: DTVMTQSPDSLAVSLGERATINCKASQSVGINVDWYQQKPGQPPKLLIYGASNRHTGVPDRFSGSGFGRDFTLTISSLQAEDVAVYYCLQHGSIPPTFGQGTKVEIKR
notes: Human IgG1 / kappa
B8: humanized anti-GPRC5D antibody h2B1_H3/L4 (antibody, human IgG1, kappa, V domains shown)
VH: QVQLVESGGGLVKPSQTLSLTCTFSGFSLNTYDMGVGWIRQPPGKGLEWIANIWWDDDKYYNPSLKSRVTISKDTSNNQASLKLSSVTAADTAVYYCARIETVRVSRKGFAHWGQGTLVTVSS
VL: DTVMTQSPDSLAVSLGERATINCKASQSVGINVDWYQQKPGQSPKLLIYGASNRHTGVPDRFSGSGFGRDFTLTISSLQAEDVAVYYCLQHGSIPPTFGQGTKVEIKR
notes: Human IgG1 / kappa
B9: humanized anti-GPRC5D antibody h2B1_H4/L4 (antibody, human IgG1, kappa, V domains shown)
VH: QVTLKESGPALVKPTQTLTLTCTFSGFSLNTYDMGVGWIRQPPGKGLEWLANIWWDDDKYYSPSLKSRLTITKDTSNNQAVLTMTNMDPVDTATYYCARIETVRVSRKGFAHWGQGTLVTVSS
VL: DTVMTQSPDSLAVSLGERATINCKASQSVGINVDWYQQKPGQSPKLLIYGASNRHTGVPDRFSGSGFGRDFTLTISSLQAEDVAVYYCLQHGSIPPTFGQGTKVEIKR
notes: Human IgG1 / kappa
B10: humanized anti-GPRC5D antibody h2B1_H4/L1 (antibody, human IgG1, kappa, V domains shown)
VH: QVTLKESGPALVKPTQTLTLTCTFSGFSLNTYDMGVGWIRQPPGKGLEWLANIWWDDDKYYSPSLKSRLTITKDTSNNQAVLTMTNMDPVDTATYYCARIETVRVSRKGFAHWGQGTLVTVSS
VL: DTVMTQSPDSLAVSLGERATINCKASQSVGINVDWYQQKPGQPPKLLIYGASNRHTGVPDRFSGSGSGRDFTLTISSLQAEDVAVYYCLQHGSIPPTFGQGTKVEIKR
notes: Human IgG1 / kappa
B11: humanized anti-GPRC5D antibody h2B1_H1/L1 (antibody, human IgG1, kappa, V domains shown)
VH: QVQLVESGGGLVKPSQTLSLTCTFSGFSLNTYDMGVGWIRQPPGKGLEWIGNIWWDDDKYYNPSLKSRVTISVDTSKNQASLKLSSVTAADTAVYYCARIETVRVSRKGFAHWGQGTLVTVSS
VL: DTVMTQSPDSLAVSLGERATINCKASQSVGINVDWYQQKPGQPPKLLIYGASNRHTGVPDRFSGSGSGRDFTLTISSLQAEDVAVYYCLQHGSIPPTFGQGTKVEIKR
notes: Human IgG1 / kappa
B12: humanized anti-GPRC5D antibody h2B1_H4/L5 (antibody, human IgG1, kappa, V domains shown)
VH: QVTLKESGPALVKPTQTLTLTCTFSGFSLNTYDMGVGWIRQPPGKGLEWLANIWWDDDKYYSPSLKSRLTITKDTSNNQAVLTMTNMDPVDTATYYCARIETVRVSRKGFAHWGQGTLVTVSS
VL: ATRMTQSPSSFSASTGDRVTITCKASQSVGINVDWYQQKPGKSPKLLIYGASNRHTGVPSRFSGSGFGRDFTLTISSLQSEDFATYYCLQHGSIPPTFGGGTKVEIKR
notes: Human IgG1 / kappa
B13: anti-GPRC5D-anti-CD3 bispecific molecule C3022-C3E7035 (bispecific antibody)
scFv: GQVQLVQSGAEVKKPGASVKVSCKASGYTFTGYYMHWVRQAPGQGLEWMGRINPNSGGTNYAQKFQGRVTMTRDTSISTAYMELSGLRSDDTAVYYCASGSVRHPWGQGTLVTVSSGGGGSGGGGSGGGGSQPVLTQPPSASGTPGQRVTISCSGSRSNIGGNIVSWYQQFPGTAPRLLTYADNQRPSGVPDRFSGSKSGTSASLAISGLQSEDEADYYCAAWDDSLNGVVFGGGTKLTVLGGGGSEVQLVESGGGLVQPGGSLRLSCAASGVTFNYYGMSWIRQAPGKGLEWVASITNSGGRIYYPDSVKGRFTISRENTQKTLYLQMNSLRAEDTAVYYCTLDGRDGWVAYWGQGTLVTVSSGGGGSGGGGSGGGGSMAQAVLTQPSSVSGVPGQRVTISCKRNTGNIGSNYVNWYQQLPGTAPKLLIYRDDKRPSGVPDRFSGSKSGTSASLAITGFQAEDEADYYCQSYSSGFIFGGGTKLTVLGAAAGAGGDYKDDDDKGAAAHHHHHH
notes: Tandem scFv
B14: anti-GPRC5D-anti-CD3 bispecific molecule C3048-C3E7035 (bispecific antibody)
scFv: GQVQLVQSGAEVKKPGSSVKVSCKASGGTFSRYAISWVRQAPGQGLEWMGGIIPIFGTANYAQKFQGRVTITADQSTRTAYMDLGRLRSEDTAVYYCALEGFRDSLKRNPFDIWGQGTMVTVSSGGGGSGGGGSGGGGSQSVVTQPPSVSAAPGQKVTISCSGGTTNIGSNYVSWYQQLPGTAPKFLMYENNKRPSGIPDRFSGSKSGTSATLAITGLQTGDEATYYCSTWDSSLNTGLFGGGTKLTVLGGGGSEVQLVESGGGLVQPGGSLRLSCAASGVTFNYYGMSWIRQAPGKGLEWVASITNSGGRIYYPDSVKGRFTISRENTQKTLYLQMNSLRAEDTAVYYCTLDGRDGWVAYWGQGTLVTVSSGGGGSGGGGSGGGGSMAQAVLTQPSSVSGVPGQRVTISCKRNTGNIGSNYVNWYQQLPGTAPKLLIYRDDKRPSGVPDRFSGSKSGTSASLAITGFQAEDEADYYCQSYSSGFIFGGGTKLTVLGAAAGAGGDYKDDDDKGAAAHHHHHH
notes: Tandem scFv

The target of the first experiment is T1, human GPRC5D (human, UniProt Q9NZD1 1-345).
T1 construct: whole, on cells; also called hGPRC5D; G-protein coupled receptor family C group 5 member D
T1 sequence (Q9NZD1 whole entry): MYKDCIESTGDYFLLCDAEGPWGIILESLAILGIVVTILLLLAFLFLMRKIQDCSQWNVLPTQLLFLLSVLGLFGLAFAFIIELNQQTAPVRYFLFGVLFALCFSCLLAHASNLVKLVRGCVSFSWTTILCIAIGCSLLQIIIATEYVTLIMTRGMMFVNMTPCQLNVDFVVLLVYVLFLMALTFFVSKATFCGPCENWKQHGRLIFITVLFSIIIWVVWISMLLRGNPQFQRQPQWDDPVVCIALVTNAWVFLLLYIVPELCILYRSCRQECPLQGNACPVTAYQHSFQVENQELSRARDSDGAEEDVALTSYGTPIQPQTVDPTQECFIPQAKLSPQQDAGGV
The experiment can be described thus: flow cytometry on KHM-1B cells (human GPRC5D), culture supernatant, PE anti-human IgG Fc, rMFI over human IgG isotype control. How it is done:
Human multiple myeloma cell line KHM-1B cells expressing GPRC5D were adjusted to a concentration of 2×10⁶ cells/mL with PBS containing 5% FBS, inoculated in an amount of 100 μL/well to a 96-well U-bottomed microplate, and centrifuged to remove a supernatant. The culture supernatant of each humanized anti-GPRC5D antibody obtained in Example 8)-3-1 or Human IgG isotype control antibody (Calbiochem/Merck Millipore Corp.) adjusted to 14 ng/mL to 30 μg/mL was added thereto in an amount of 100 μL/well, and the plate was left standing at 4° C. for 1 hour. The cells were washed twice with PBS containing 5% FBS. Then, R-Phycoerythrin AffiniPure F(ab′)2 Fragment Goat Anti-Human IgG, Fcγ Fragment Specific (Jackson ImmunoResearch Laboratories, Inc.) diluted 100-fold with PBS containing 5% FBS was added thereto in an amount of 100 μL/well, and the plate was left standing at 4° C. for 1 hour. The cells were washed twice with PBS containing 5% FBS and then resuspended in PBS containing 5% FBS, followed by detection using a flow cytometer (FACSCanto™ II; Becton, Dickinson and Company). The data was analyzed using Flowjo (Tree Star, Inc.). The PE fluorescence intensity of the cell fraction was plotted to a histogram, and the mean fluorescence intensity (MFI) was calculated. The MFI value of the control antibody was subtracted from the MFI value of the GPRC5D antibody to calculate a relative value of MFI (rMFI).
For B1, the binding result is reported as “binds”.
With B2, the binding result is recorded as “binds”.
On the same count and under the same terms, for B3 the value was “binds”; for B4, “binds”.
For the molecule B5, the binding result is given as “binds”.
Still for that read-out and setting: next, B6: “binds”; B7: “binds”.
In the case of B8, the binding result is “binds”.
On the same count and under the same terms, next, B9: “binds”.
Still for that read-out and setting: for B10 the value was “binds”; for B11, “binds”; for B12, “binds”.

For a further experiment, the target named is T1, human GPRC5D. The experiment can be described thus: flow cytometry on A4/Fuk cells (endogenous human GPRC5D), Penta-His Alexa Fluor 488 detection, rMFI = MFI minus sample without antibody. How it is done:
Lymphoma cell line A4/Fuk cells (JCRB Cell Bank) were adjusted to an appropriate concentration with PBS containing 5% FBS. LIVE/DEAD Fixable Near-IR Dead Cell Stain Kit was added to the cells, which were then left standing at 4° C. for 30 minutes. The cells were washed twice with PBS containing 5% FBS, then adjusted to a concentration of 1×10⁶ cells/mL with PBS containing 5% FBS, inoculated in an amount of 100 μL/well to a 96-well U-bottomed microplate, and centrifuged to remove a supernatant. Each anti-GPRC5D-anti-CD3 bispecific molecule (C2037-C3E7034 to C3022-C3E7036 prepared in Example 12) diluted with PBS containing 5% FBS were added thereto in an amount of 100 μL/well, and the plate was left standing at 4° C. for 60 minutes. The cells were washed twice with PBS containing 5% FBS. Then, Penta-His Alexa Fluor 488 diluted with PBS containing 5% FBS was added thereto in an amount of 30 μL/well, and the plate was left standing at 4° C. for 30 minutes. The cells were washed twice with PBS containing 5% FBS and then resuspended in PBS containing 5% FBS, followed by detection using a flow cytometer (FACSCanto™ II). The data was analyzed using Flowjo. The mean fluorescence intensity (MFI) of Alexa Fluor 488 in a fraction free from dead cells was calculated. The MFI value of the antibody-unsupplemented sample was subtracted from the MFI value of the antibody-supplemented sample to calculate a relative value of MFI (rMFI).
For orientation: A flow cytometer gives signals particle by particle.
For B13, the binding result was “binds”.
The same measure, in the same setting: for B14 the value was “binds”.
